Reference: patent US20180251563A1 (SUBDOMAIN, published 2018)
Positions count from the first letter of the chain named.

B1: SEQ ID NO 65 (designed binder)
chain: MGSWEEFHERLDAIDERLEALGGSEAELAFFEDDIASFEDWLQWYKGKGNPEVEALSREADAINFELEAYRHN
B2: SEQ ID NO 184 (designed binder)
chain: MGSWYEFDDRLNAIHDRLQALGGSEAELAAFEKEIAAFESELQAYKGKGNPEVEDLRDDAAFIRRFLQAYRHN
notes: also called pb06
B3: SEQ ID NO 181 (designed binder)
chain: B2 chain with Y5N, D8H, D16A, Q19H, D55N
B4: SEQ ID NO 183 (designed binder)
chain: B2 chain with Y5K, H15K, D16A
B5: SEQ ID NO 185 (designed binder)
chain: B2 chain with Y5N, D8K, D9N, N12D, D16K, Q19N, D55N, R65H
B6: SEQ ID NO 186 (designed binder)
chain: B2 chain with Y5T, D8E, D9Q, N12E, D16N, D55E, D58N, R65H
B7: SEQ ID NO 26 (designed binder)
chain: MGSWNYFKDHLAWIKNSLEALGGSEAELAHFETAIASFERQLQEYKGKGNPEVEALRKEAAAIRDELQAYRHN
B8: SEQ ID NO 27 (designed binder)
chain: B7 chain with N5L, D9E, W13H, N16A, S17W, T33L, S37D, R40Y, Q41H
B9: SEQ ID NO 28 (designed binder)
chain: MGSWVYFKEHLAWIKTELEALGGSEAELAHFEHSIADFEMSLQFYKGKGNPEVEALRKEAAAIRDELQAYRHN
B10: SEQ ID NO 29 (designed binder)
chain: B7 chain with N5F, D9Q, N16S, S17Y, T33R, S37A, R40Q, Q41H, E44M
B11: SEQ ID NO 30 (designed binder)
chain: B7 chain with N5H, W13E, N16G, S17L, T33M, S37D, R40H, Q41N, E44Y
B12: SEQ ID NO 33 (designed binder)
chain: B9 chain with V5T, W13E, T16Y, E17M, H33V, S34A, M40K, S41M, F44Y
B13: SEQ ID NO 34 (designed binder)
chain: B7 chain with N5W, Y6L, W13E, N16T, S17A, T33M, S37A, R40K, E44Y
B14: SEQ ID NO 31 (designed binder)
chain: B7 chain with N5H, D9G, W13E, S17H, T33R, S37A, Q41S, E44W
B15: SEQ ID NO 32 (designed binder)
chain: B9 chain with V5I, W13Y, T16K, H33S, S34A, D37V, M40S, S41T, F44Y
B16: SEQ ID NO 38 (designed binder)
chain: B2 chain with Y5T, D8Q, D9S, N12D, D16S, Q19R, D55L, R65H
B17: SEQ ID NO 39 (designed binder)
chain: B2 chain with Y5Q, H15K, D16A
B18: SEQ ID NO 40 (designed binder)
chain: B2 chain with D8Q, D9N, N12H, D16E, Q19N, D55L, R65H
B19: SEQ ID NO 42 (designed binder)
chain: B2 chain with D8E, D9S, N12D, D16E, Q19H, D55N, D58G, R65H
B20: SEQ ID NO 43 (designed binder)
chain: B2 chain with D8N, D9H, N12D, H15S, D16K, Q19N, D55E, D58G, R65H
B21: SEQ ID NO 41 (designed binder)
chain: B2 chain with Y5F, D8Q, N12T, H15N, D16E, Q19S, D55T, D58S
B22: SEQ ID NO 44 (designed binder)
chain: MGSWFEFENRLHAIVHRLGALGGSEAELAAFEKEIAAFESELQAYKGKGNPEVETLRADAAFIRHYLQAYRHN
B23: SEQ ID NO 14 (designed binder)
chain: MGSWYEFRHRLWAIDQRLYALGGSEAELAAFEKEIAAFESELQAYKGKGNPEVEGLREAAAFIRAKLQAYRHN
B24: SEQ ID NO 12 (designed binder)
chain: B23 chain with Y5V, R8G, G55K, E58Q, A59R, A65F, K66R
B25: SEQ ID NO 15 (designed binder)
chain: B23 chain with R8S, H9M, G55A, E58A, A59K, F62Y, A65W
B26: SEQ ID NO 17 (designed binder)
chain: B23 chain with R8G, G55Y, A59T, F62H, A65T, K66R
B27: SEQ ID NO 13 (designed binder)
chain: B23 chain with Y5V, R8A, H9N, Y19F, G55H, E58D, A59Q, A65H
B28: SEQ ID NO 16 (designed binder)
chain: B23 chain with Y5F, R8N, D15N, Q16E, G55R, E58S, A59M, A65Y
B29: SEQ ID NO 18 (designed binder)
chain: B23 chain with R8H, H9Y, W12H, G55E, E58I, A59K, A65D, K66R
B30: SEQ ID NO 20 (designed binder)
chain: B2 chain with D9L, N12H, H15Y, Q19V, D55I, D59N, F62Y, R65Q, F66M
B31: SEQ ID NO 53 (designed binder)
chain: MGSWYEFRHRLWAIDQRLYALGGSEAELAAFEKEIAAFESELQAYKGKGNPEVEGLREAAAFIRAKLQAYRHNGGGGSHHHHHH
notes: E. coli, IMAC and HPLC purified
B32: SEQ ID NO 51 (designed binder)
chain: B31 chain with Y5V, R8G, G55K, E58Q, A59R, A65F, K66R
notes: as for B31
B33: SEQ ID NO 52 (designed binder)
chain: B31 chain with Y5V, R8A, H9N, Y19F, G55H, E58D, A59Q, A65H
notes: as for B31
B34: SEQ ID NO 54 (designed binder)
chain: B31 chain with R8S, H9M, G55A, E58A, A59K, F62Y, A65W
notes: as for B31
B35: SEQ ID NO 55 (designed binder)
chain: B31 chain with Y5F, R8N, D15N, Q16E, G55R, E58S, A59M, A65Y
notes: as for B31
B36: SEQ ID NO 56 (designed binder)
chain: B31 chain with R8G, G55Y, A59T, F62H, A65T, K66R
notes: as for B31
B37: SEQ ID NO 57 (designed binder)
chain: B31 chain with R8H, H9Y, W12H, G55E, E58I, A59K, A65D, K66R
notes: as for B31
B38: SEQ ID NO 58 (designed binder)
chain: MGSWAEFKQRLAAIKTRLEALGGSEAELAAFLGEIWAFEMELAAYKGKGNPEVEALGREAAAIRMELQAYRHNGGGGSHHHHHH
notes: E. coli, IMAC and HPLC purified; also called His-fusion of bb10

What follows are binders tested against T1, CD123 (target of Example 19) (Homo sapiens (Human), UniProt P26951 19-305, limits assumed) (assay: library selection; assay not described).
T1 sequence: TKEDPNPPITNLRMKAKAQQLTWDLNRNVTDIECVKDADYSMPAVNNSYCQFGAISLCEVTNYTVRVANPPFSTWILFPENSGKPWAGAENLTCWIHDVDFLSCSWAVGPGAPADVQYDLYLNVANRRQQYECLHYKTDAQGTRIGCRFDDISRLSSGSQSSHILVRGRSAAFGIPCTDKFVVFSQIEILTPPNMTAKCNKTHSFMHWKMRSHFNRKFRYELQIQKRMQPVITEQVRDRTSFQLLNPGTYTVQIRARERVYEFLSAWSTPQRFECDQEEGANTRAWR

Row | Binder | binding result
1 | B1 | binds

The binders below were run against PD-L1 (target of Example 25) (UniProt Q9NZQ7 19-238, limits assumed) (assay: library selection; assay not described).
Chain of PD-L1 (target of Example 25) (Q9NZQ7 19-238 limits assumed): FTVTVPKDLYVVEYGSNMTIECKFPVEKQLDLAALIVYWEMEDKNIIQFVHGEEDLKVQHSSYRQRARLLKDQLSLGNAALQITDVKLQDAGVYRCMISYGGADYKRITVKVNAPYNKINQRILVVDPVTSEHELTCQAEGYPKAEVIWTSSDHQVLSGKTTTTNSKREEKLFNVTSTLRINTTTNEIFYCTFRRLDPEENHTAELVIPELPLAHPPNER

Row | Binder | binding result
2 | B2 | binds
3 | B3 | binds
4 | B4 | binds
5 | B5 | binds
6 | B6 | binds

The binders below were run against T2, DR5-Fc (UniProt O14763 56-182, limits assumed) (assay: phage ELISA, target-Fc against non-specific control).
T2 construct: purified recombinant target-Fc protein; not shown: Fc
T2 sequence (O14763 56-182 limits assumed): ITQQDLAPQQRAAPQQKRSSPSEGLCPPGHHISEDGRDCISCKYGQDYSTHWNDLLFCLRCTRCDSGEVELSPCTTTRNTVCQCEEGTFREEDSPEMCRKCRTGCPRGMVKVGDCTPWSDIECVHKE
Experimental: (§1) Selections were also performed using F1, F2, F3, C1 & C2 trinucleotide phosphoramidite libraries. In most cases, libraries were pooled prior to use in selection. By combining equal volumes of the individual libraries, Pool F (libraries F1, F2 and F3) and Pool C (libraries C1 and C2) were generated. These libraries were used in selections for DBDpp binders to 4-1BB/CD137 as well as a larger panel of purified recombinant “target”-Fc proteins, including CD47, CTLA4, DR5, KIR, LAG3, OX40, PD1, PD-L1 and TIM3. (Many of these targets are considered immuno-regulatory factors (Pardoll et al., Nat. Rev. Cancer 12:252-264 (2012)). After incubation of the target with the pools of DBDpp phage libraries, bound phage-target complexes were captured and separated from unbound phage with protein A beads (target proteins were Fc fusions). After three rounds of selection, rescued phage clones were screened by ELISA for binding to the selected target.
(§2) For each target, approximately 90 DBDpp phage clones were screened by ELISA for binding to the target protein and as well as a non-specific control (e.g., IgG1-Fc). […] In some instances, for the ELISA screening plate in which the majority of DBDpp clones were positive, the entire plate was sequenced.

Row | Binder | ELISA ratio (target to background)
7 | B7 | 13 ratio
8 | B8 | 12.3 ratio
9 | B9 | 12.1 ratio
10 | B10 | 11.8 ratio
11 | B11 | 11.4 ratio
12 | B12 | 10.3 ratio
13 | B13 | 9.75 ratio
14 | B14 | 10.8 ratio
15 | B15 | 10.7 ratio

Each binder was assayed against T3, PD-L1-Fc (UniProt Q9NZQ7 19-238) in the same assay as above.
T3 construct: purified recombinant target-Fc protein; also called FC-PD-L1; not shown: Fc
T3 sequence (Q9NZQ7 19-238 limits assumed): as the sequence (Q9NZQ7 19-238 limits assumed) above
Experimental: as §1, §2

Row | Binder | ELISA ratio (target to background)
16 | B16 | 8.68 ratio
17 | B17 | 7.41 ratio
18 | B18 | 6.34 ratio
19 | B19 | 4.88 ratio
20 | B20 | 2.98 ratio
21 | B21 | 6.01 ratio
22 | B22 | 2.76 ratio

What follows are binders tested against T4, recombinant, biotinylated, Human 4-1BB/TNFRSF9/CD137-Fc (human, UniProt Q07011 24-186, biotinylated (F2NNK selection)) in the same assay as above.
T4 construct: also called 4-1BB/CD137; not shown: Fc
T4 sequence (Q07011 24-186 limits assumed): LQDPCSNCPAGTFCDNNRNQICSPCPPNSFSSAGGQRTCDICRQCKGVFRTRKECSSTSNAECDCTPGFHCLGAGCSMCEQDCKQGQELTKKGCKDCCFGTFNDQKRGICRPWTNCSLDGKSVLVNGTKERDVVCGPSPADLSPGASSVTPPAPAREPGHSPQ
Experimental: as §1, §2

Row | Binder | ELISA ratio (target to background)
23 | B23 | 13 ratio
24 | B24 | 20.6 ratio
25 | B25 | 12 ratio
26 | B26 | 7.71 ratio
27 | B27 | 16.1 ratio
28 | B28 | 11.9 ratio
29 | B29 | 7.26 ratio

What follows are binders tested against T5, CD47-Fc (UniProt Q08722 19-139) in the same assay as above.
T5 construct: purified recombinant target-Fc protein; not shown: Fc
T5 sequence (Q08722 19-139 limits assumed): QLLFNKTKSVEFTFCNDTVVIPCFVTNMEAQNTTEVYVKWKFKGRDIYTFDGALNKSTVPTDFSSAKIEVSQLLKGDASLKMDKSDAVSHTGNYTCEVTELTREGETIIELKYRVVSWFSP
Experimental: as §1, §2

Row | Binder | ELISA ratio (target to background)
30 | B30 | 14.1 ratio

These binders were tested against T6, CD137-Fc-His6 fusion protein (assay: biolayer interferometry (ForteBio), CD137-Fc-His6 immobilized via protein A, steady state fit).
T6 construct: Made in HEK293 cells, IMAC purified; also called CD137 target protein
Experimental: The binding of the eight his-tagged DBDpp ligands (SEQ ID NO:51-58) to the CD137 target protein was assessed using biolayer interferometry (ForteBio, Menlo Park, Calif.) according to established methods. The binding assay was constructed by immobilizing the CD137-Fc-His6 via protein A and then incubating in solutions of each of the DBDpp ligands for 5 minutes to measure the association (binding) phase. The sensors were then placed in buffer to monitor the dissociation phase and the complete sensorgrams (time in seconds on the X-axis and nm on the Y-axis) are shown in FIGS. 12A, 12C, 12E, 12G, 12I, 12K, 12M, and 12O for DBDpps of SEQ ID Nos: 51-58, respectively. The data was fitted by steady state analysis, which is depicted in each of FIGS. […], 12F, 12H, 12J, 12L, 12N, and 12P for the corresponding DBDpp.

Row | Binder | Kd
31 | B31 | 140 nM
32 | B32 | 640 nM
33 | B33 | 460 nM
34 | B34 | 400 nM
35 | B35 | 170 nM
36 | B36 | 770 nM
37 | B37 | 1000 nM
38 | B38 | 1700 nM
